Here are results for five sequences from patent US20210054030.

Data set [1] deals with TET1 TALE-VP64 (RG) (Xanthomonas (TALE scaffold)?). Put plainly: cell_activity. As to conditions: 5mC at CpG (cellular, high); HeLa.
Data set [2] has as its system TALE-(CP)3-VP64 (Xanthomonas (TALE scaffold)?). Put plainly: cell_activity. The settings on record: HEK293T.
Data set [3] concerns TALE-(NP)3-VP64 (Xanthomonas (TALE scaffold)?). Put plainly: cell_activity. As to conditions: HEK293T.
The subject of data set [4] is TALE-(FT)3-VP64 (Xanthomonas (TALE scaffold)?). Put plainly: cell_activity. As to conditions: HEK293T.
In data set [5] the test system is TALE-(CV)3-VP64 (Xanthomonas (TALE scaffold)?). Put plainly: cell_activity. The settings on record: HEK293T.
The subject of data set [6] is TALE-HD (MAPK6 target) (Xanthomonas (TALE scaffold)?). Put plainly: inhibition. As to conditions: MspI protection, 25 C.
Where [7] appears, read: 6mA at bases 7-9 of the site, forward strand.

Sequence “TAGGCGTCCTCCGCGAC (double strand) [TET1 promoter, HeLa (highly methylated)]” registered an activity (fold induction) in data set [1] of 10.

As to “CTGGCCAAATACGTA (double strand) [A reporter]”, the 6mA/A selectivity ratio in data set [2], in data set [3], in data set [4] and in data set [5] was > 5 6mA/A ratio each time.

“TTCAGCTGGATCCCGGGAGGAGCGGATATAACCAGG (double strand) [MAPK6 probe, 5mC]” showed a binding signal (fold higher Ki than for C) in data set [6] (5mC at second C of the MspI site CCGG (C14)) of more than 30.

Sequence “TTCAGCTGGATCCCGGGAGGAGCGGATATAACCAGG (double strand) [MAPK6 probe, 5hmC]” came in with a binding signal (fold higher Ki than for C) in data set [6] (5hmC at second C of the MspI site CCGG (C14)) of more than 30.

For “CTGGCCAAATACGTA (double strand) [6mA reporter]”, the activity (fold EGFP induction) in data set [2] (setting [7]) is more than 5; in data set [3] (6mA at bases 7-9 of the site, forward strand, strongest of the 6mA-specific RVDs) it was more than 5; in data set [4] (setting [7]) it was more than 5; in data set [5] (setting [7]), more than 5.
